The target in this experiment is recombinant HLA-A*0201 refolded with purified human beta2-microglobulin (human). Kind of experiment: circular dichroism melting of the refolded peptide-HLA-b2m complex (temperature at which 50% is melted). For orientation: CD spectra are sensitive to the conformation of chiral molecules.
Consider LLMGTLGIVCPIC (modifications not checked) [peptide A2.1/4], for which the Tm amounted to 41 °C.

On to TLGIVCPIC (modifications not checked) [peptide A2.4], for which the Tm was determined as 41.5 °C. Turning to YMLDLQPET (modifications not checked) [peptide A2.2], the Tm stood at 52.5 °C.
